According to patent US20260365696A1, “INHIBITORS OF PTP1B / NCK1 INTERACTION AND METHODS OF MAKING AND USING SAME” (Radella Pharmaceuticals LLC, priority 2023, published 2026):
Read-outs that look alike come from different tables or passages of the source. Values belong to the molecule of their own block, whether it stands above or below them. No end group written: not given here.

How the values were obtained:
[1] = target: T1, SH3-2 domain of NCK1 (Homo sapiens, UniProt P16333); experiment: Isothermal titration calorimetry (ITC) binding to NCK1 SH3-2 domain
T1 construct: To amplify the NCK1 SH3-2 domain, the primers; 10xHis tag with TEV site (vector pSF-OXB20-NH2-10HIS) (N, cleaved yes); made in house; host or cells: E. coli C43(DE3)
Procedure, shortened: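 Peptides (3-7.5 mM) titrated into TEV-cleaved, His-purified human NCK1 SH3-2 domain (0.125-0.3 mM) at 25 °C in 10 mM sodium buffer with sodium chloride, pH 8.0. One 0.2 μL then 19 × 2 μL injections; KD from fits with 0.8-1.2 sites, averaged over three runs.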

[2] = tested on: db/db mice; experiment: db/db genetic mouse model of diabetes and obesity; type: in vivo
From the text: Animals: All animals were housed and tested following European (Directive on the Protection of Animals used for Scientific Purposes, 2010/63/EU) and UK Home Office regulations. Experiments were approved by the University Ethics Board and carried out in accordance with the Animal (Scientific Procedures) Act 1986 and following ARRIVE guidelines. Db/db male mice (~4 weeks old) were purchased from Jackson, USA. All mice received standard mouse chow diet and had ad libitum access to food and water and were kept in a 12 h light/dark cycle.
Treatments: Mice were assigned and counterbalanced according to their body weights in to the following groups: control PBS (n=10); MD18 at 15 mg/kg (n=7), 30 mg/kg (n=8), or 45 mg/kg (n=7); or MD20 at 15 mg/kg (n=9), 30 mg/kg (n=10) or 45 mg/kg (n=7). MD18 and MD20 were administered once daily via subcutaneous (SC) injection for 41 days, whereas control mice received a daily SC injection of vehicle (PBS). MD18 and MD20 were kept in −20 °C and dissolved in sterile phosphate buffered saline (PBS).
Body weights and body mass composition: Body weights were recorded twice weekly during the study, and fat mass and lean mass composition was analysed using an EchoMRI scanner (EchoMedical Systems, Houston, TX, U.S.A.).
Metabolic measurements: All animals were five-hour fasted before obtaining basal glucose measurements and GTT, ITT, and corresponding treatments were administered 1 hour before glucose measurements. Tail blood glucose was measured using AlphaTRAK 2 glucose strips and glucometer (Abbot, UK), or blood was collected and glucose assay (AB65333, Abcam) was performed where readings were too high to be recorded via glucometer. Human Actrapid Insulin (NovaNordisk) at 1 IU/kg dose was administered during ITT.
Serum and liver assays: Trunk-derived blood was collected from 5 h-fasted mice into serum separator microtubes and kept at −80 °C. Serum was used for insulin (#EZRMI-13K, Merck) and leptin (#90030, Crystal Chem) analyses.
Statistical analyses: Data were reported as means±SEM and analysed using one- or two-way ANOVA with Bonferroni post hoc tests, as appropriate. GraphPad Prism (V8, GraphPad Software, Inc., San Diego, California, USA) was used for statistical analyses. P-values <0.05 were considered significant.

[3] = target: T2, NCK1 SH3-2 domain (human); experiment: ITC
T2 chain: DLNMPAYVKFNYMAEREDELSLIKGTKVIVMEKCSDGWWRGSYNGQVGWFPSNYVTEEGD

[4] = target: T2, NCK1 SH3-2 domain; experiment: ITC
[5] = target: T2, NCK1 SH3-2 domain; experiment: ITC
[6] = target: T2, NCK1 SH3-2 domain; experiment: ITC

Molecule: Ac-PPRPPKR-NH2 [MD18, Ac-PPRPPKR-NH2]
Kd ([1]; Peptide truncation analysis, ITC, 25 °C, pH 8.0): ≤ 300 µM
Kd ([1]; ability to bind SH3-2 domain of NCK1, stated in text): < 193 µM
leptin levels ([2]; 15 mg/kg SC daily, about 6 weeks, vs control): A trend for decreased leptin levels
glucose clearance during GTT ([2]; 15 mg/kg SC daily, week 4, vs control): better glucose clearance at 15-minutes post-glucose injection
fat mass gain ([2]; 15 mg/kg and 30 mg/kg SC daily): inhibited fat mass gain
body weight gain ([2]; 15 mg/kg and 30 mg/kg SC daily, vs control): significantly inhibited body weight gain
fasted insulin levels ([2]; 30 mg/kg SC daily, about 6 weeks, vs control): A trend for lower fasted insulin levels
basal glucose levels ([2]; 5-hour-fasted, SC daily, vs vehicle): No significant differences
efficacy with respect to inhibiting body weight, inhibiting fat mass gain, and improving glucose clearance during GTT ([2]; SC daily, compared to MD20): better efficacy as compared to MD20 treatment
insulin tolerance test (ITT) ([2]; SC daily, week 6, 1 IU/kg insulin, vs control): did not detect any significant differences

B1: MH001 (peptide)
chain: Ac-PPPEHIPPAPRPPKR-NH2
Kd [3]: < 300 µM

B3: MH063 (peptide)
chain: Ac-PPRPPKRI-NH2
Kd [5]: < 300 µM
Kd [6]: < 300 µM

B4: MH002 (peptide)
chain: Ac-PPPEHIPPPARPPKR-NH2
Kd [3]: > 1000 µM

B5: MH145 (peptide)
chain: Ac-PPRPPKRG-NH2
Kd [6]: < 300 µM

B6: MH005 (peptide)
chain: Ac-PPPEHIPPPPRPAKR-NH2
Kd [3]: > 1000 µM

B8: MH004 (peptide)
chain: Ac-PPPEHIPPPPRAPKR-NH2
Kd [3]: < 300 µM

B9: MH135 (peptide)
chain: Ac-WKELSHEDLEPPPEHIPPPPRPPKR-NH2
Kd [5]: < 300 µM

B10: MH089 (peptide)
chain: Ac-PPPEHIPPPPRPPKRILEPH-NH2
Kd [5]: < 300 µM

B11: MH077 (peptide)
chain: Ac-PPPEHIPPPPRPPKRILE-NH2
Kd [5]: < 300 µM

B12: MH007 (peptide)
chain: Ac-PPPEHIPPPPRPPKA-NH2
Kd [3]: > 1000 µM

B17: MH139 (peptide)
chain: Ac-PPRPPKRR-NH2
Kd [6]: < 300 µM

B18: MH149 (peptide)
chain: Ac-PPRPPKRM-NH2
Kd [6]: < 300 µM

B21: MH140 (peptide)
chain: Ac-PPRPPKRN-NH2
Kd [6]: < 300 µM

B22: MH150 (peptide)
chain: Ac-PPRPPKRF-NH2
Kd [6]: < 300 µM

B23: MH148 (peptide)
chain: Ac-PPRPPKRK-NH2
Kd [6]: < 300 µM

B24: MH065 (peptide)
chain: Ac-PPRPPKRILE-NH2
Kd [5]: < 300 µM

B27: MH154 (peptide)
chain: Ac-PPRPPKRW-NH2
Kd [6]: < 300 µM

B28: MH137 (peptide)
chain: Ac-PPPEHIPPPPRPPKRILEPHNGKCREFFPN-NH2
Kd [5]: < 300 µM

B29: MD17 (peptide)
chain: Ac-PPPEHIPPPPRPPKR-NH2
Kd [3]: < 300 µM

B30: MH134 (peptide)
chain: Ac-PPPEHIPPPPRPPKRILEPHNGKCR-NH2
Kd [5]: < 300 µM

B31: MH006 (peptide)
chain: Ac-PPPEHIPPPPRPPAR-NH2
Kd [3]: < 300 µM

B33: MH090 (peptide)
chain: Ac-HEDLEPPPEHIPPPPRPPKR-NH2
Kd [5]: < 300 µM

B37: MH003 (peptide)
chain: Ac-PPPEHIPPPPAPPKR-NH2
Kd [3]: < 300 µM

B40: MH064 (peptide)
chain: Ac-PPRPPKRIL-NH2
Kd [5]: < 300 µM

B41: MH138 (peptide)
chain: Ac-PPRPPKRA-NH2
Kd [6]: < 300 µM

B42: MH151 (peptide)
chain: Ac-PPRPPKRP-NH2
Kd [6]: < 600 µM

B46: MH136 (peptide)
chain: SVQDQWKELSHEDLEPPPEHIPPPPRPPKR-NH2
modifications: not fully specified (N-terminus)
Kd [5]: < 300 µM

Further lines, results first:

binding result [4]: no binding
B2: MH108 (peptide)
chain: Ac-PPRSPKR-NH2

binding result [4]: no binding
B7: MH127 (peptide)
chain: Ac-PPRNPKR-NH2

Kd [6]: < 300 µM
B13: MH155 (peptide)
chain: Ac-PPRPPKRY-NH2

Kd [3]: < 300 µM
B14: MSJ016 (peptide)
chain: Ac-PPPEAIPPPPRPPKR-NH2

Kd [3]: < 300 µM
B15: MSJ018 (peptide)
chain: Ac-PPPEHIAPPPRPPKR-NH2

Kd [3]: < 300 µM
B16: MSJ017 (peptide)
chain: Ac-PPPEHAPPPPRPPKR-NH2

Kd [3]: < 300 µM
B19: MSJ015 (peptide)
chain: Ac-PPPAHIPPPPRPPKR-NH2

binding result [4]: no binding
B20: MH128 (peptide)
chain: Ac-PPRDPKR-NH2

binding result [4]: no binding
B25: MH111 (peptide)
chain: Ac-PPRMPKR-NH2

binding result [4]: no binding
B26: MH132 (peptide)
chain: Ac-PPRHPKR-NH2

binding result [4]: no binding
B32: MH129 (peptide)
chain: Ac-PPRCPKR-NH2

binding result [4]: no binding
B34: MH131 (peptide)
chain: Ac-PPRQPKR-NH2

binding result [4]: no binding
B35: MH093 (peptide)
chain: Ac-PPRGPKR-NH2

Kd [3]: < 300 µM
B36: MSJ014 (peptide)
chain: Ac-PPAEHIPPPPRPPKR-NH2

Kd [3]: < 300 µM
B38: MSJ013 (peptide)
chain: Ac-PAPEHIPPPPRPPKR-NH2

Kd [3]: < 300 µM
B39: MSJ012 (peptide)
chain: Ac-APPEHIPPPPRPPKR-NH2

binding result [4]: no binding
B43: MH118 (peptide)
chain: Ac-PPRWPKR-NH2

binding result [4]: no binding
B44: MH130 (peptide)
chain: Ac-PPREPKR-NH2

Kd [3]: < 300 µM
B45: MSJ019 (peptide)
chain: Ac-PPPEHIPAPPRPPKR-NH2
